# Measurements as given in article PMC11082194, “A common polymorphism in the Intelectin-1 gene influences mucus plugging in severe asthma” (Nature Communications, 2024).
# Key:
# [1] = target: purified human airway mucins; test: ELISA; purified mucins coated on NUNC Maxisorp plate overnight at 4 °C, 20 μg/mL, carbonate-bicarbonate buffer pH 9.6; FLAG-ITLN-1 10 μg/mL for 2 hours in binding buffer B (TBS, 3 mM CaCl3, 1% BSA, 0.05% Tween-20, 50 mM EDTA); anti-FLAG HRP, absorbance 450 nm; also with galactose 100 mM, heparin 150 μg/mL or dextran sulfate 150 μg/mL
# [2] = target: T1, FLAG-tagged recombinant ITLN-1 (human, UniProt Q8WWA0 19-298); test: ELISA; C-terminal recombinant peptide coated on NUNC Maxisorp plate overnight at 4 °C, 20 μg/mL, carbonate-bicarbonate buffer pH 9.6; FLAG-ITLN-1 10 μg/mL for 2 hours in binding buffer A (TBS, 3 mM CaCl3, 1% BSA, 0.05% Tween-20); anti-FLAG HRP, absorbance 450 nm; also with heparin 150 μg/mL; conditions: both partners purified
# T1 construct: intelectin-1 (ITLN-1), human, recombinant; also called intelectin-1; recombinant human ITLN-1 protein; source: bought: Sigma, SRP8047
percent decrease of binding with dextran sulfate (150 μg/mL) [1],percent decrease of binding with heparin (150 μg/mL) [1],binding result [2],Molecule
74%,51.9%,,FLAG-tagged recombinant ITLN-1 (from UniProt Q8WWA0 19-298) (natural protein)
,,binds,"MUC5AC C-terminal recombinant peptide (AA5568-AA5654) (domain or fragment, human, UniProt P98088 5568-5654, looked up, MUC5AC mucin, human, C-terminal recombinant peptide, residues 5568-5654; also called C-terminal MUC5AC; C-terminal peptide of MUC5AC; source: bought: Mybiosource, #MBS2009104) YSLEGNTVEHRCQCCQELRTSLRNVTLHCTDGSSRAFSYTEVEECGCMGRRCPAPGDTQHSEEAEPEPSQEAESGSWERGVPVSPMH"
